Data reported in the DeepSol protein solubility set.

Assay: soluble on expression in E. coli; label from the status in PepcDB or PDB records

Row | Sequence | soluble on expression in E. coli
1 | MSLLSRSVKRELVGKSAQMEQIRSHVAQYALLNRHVVIVGESGCGRHTIAYLIHQLTTNNGHLPWVELVASAKTEWSTVEPKVQESAGGTLLIDHIELLSEEVQRNVVQSLLNQERLNRPRTRVIAVIDQPPEQLIAQNQLLPELYYLLNQGQIDVPLLRQRPDDIAALFHYFLKQSCYKLGKPMPNVEPHYLALLRAHQWPGNVRELRNVAELYAIGIVKLAGKERLYNQEEMLSPLDELVDDYEKQVIEDALFLFSGRVADAANYLQVPRKKLYLRMKKHGLEKDAFKAREGHHHHHH | not soluble
2 | MSLLTKSAENKRNRKDDSMRPGQQLTLSIDHQTDFGYFLTDGEDTILLHNSEMTEDIEDRDEVEVFIYVDQQERLAATMKIPIISADEYGWVEVVDKVEDMGVFVDVGLSKDALVATEHLPPYEDVWPQKGDKLYCMLKVTNRGRMFAKPAPEDIISELFTDASEDLMNKELTGTVYRLIASGSFVITDDGIRCFIHPSERKEEPRLGSRVTGRVIQVKEDGSVNLSLLPRKQDAMSVDAECILTYMRMRNGAMPYSDKSQPDDIRERFNMSKAAFKRALGHLMKNGKVYQENGWTYEKKEGGSHHHHHH | soluble
3 | MSLMDYGIDIWGNENFIIKNGKVCINYEKKPAIIDIVKELRDDGYKGPLLLRFPHLIQKQIENIYGNFNKARKEFGYKGGFNAVYPLKVNQYPGFVKNLVKLGKDYNYGLEAGSKAELLLAMAYNNEGAPITVNGFKDRELINIGFIAAEMGHNITLTIEGLNELEAIIDIAKERFKPKPNIGLRVRLHSAGVGIWAKSGGINSKFGLTSTELIEAVNLLKENKLLEQFTMIHFHLGSQITEIHPLKKALNEAGNIYTELRKMGAKNLKAINLGGGLAVEYSQFKNEKSRNYTLREYANDVVFILKNIAEQKKDLEPDIFIESGRFVAANHAVLIAPVLELFSQEYAENKLILKKQNPKLIDELYDLYKSIKPSNALEYLHDSIDHLESILTLFDLGYVDLQDRSNAEILTHLITKKAILLLGDKQNPADLLAIQDEVQERYLVNFSLFQSMPDFWGLEQNFPIMPLDRLDEEPTRSASIWDITCDSDGEISYSKDKPLFLHDVDVEKENYFLGFFLVGAYQEVLGMKHNLFTHPTEAIISINEKGYEVEGIIEAQSILDTLEDLDYDIHAIMDILNERISNSKLVNDKQKKHILGELYLFLNDNGYLKSIGVEGHHHHHH | soluble
4 | MSLNANVVIAGPGTGKTTSISQKYLELVQSGVDPNDILCITFTNKAAENMRSRIIKALERSGTQIDLSVINVYTFHSFANSAIRRYGYRGIVNQNFLRKIIFDYLIRNSVFNYEREYLISRIVPQLENIIRYLGSFGIDRIENPEETAASLREIFKKRREEKKIKEDLEEITAIFIHLSKIMDEYRNAKEARGVIDYNDMIIKFLELEKKPHFKYVLVDELQDASDLQARLIKSVADDIYAVGDRKQAIFGFQGGGFGNFSNHFPDAHVNYLLTDHRNSEAVLNYAREFFLKNTKYPDQYRTELDQLKASKARGGSVEVVSGEEEAVLDLLKRFPEGKVGILARRNDQVIKISEILDSNGMRYASSALSAASDRAKKDVIAFLKMIIYGDMQSVIDALFTPFSGLQISEAYDIKESLISGNTSLQNYDLLNNLRRTYSAPGINGLIDMFEKLIIPIALAFDQRYFLTVERIYKNLREYLDFYGNEDRSDLINYLEICDDEVQEIDADERISVLTVHKAKGLEFDHVIYLPKAKKDEKMSAVDLVAEQMIRLKTEGHHHHHH | soluble
5 | MSLNAPQWLGAEGEKIAARHLAAKGYRIVARNYRFHRNEIDIIAFDGEALCFIEVKTRASLGKGHPAESVTRSKQKEIARAAAGYLASLDDPWITCRFDVIAVLALSIDERSIRKYEIEHIKAAFMVGDKGEGHHHHHH | soluble
6 | MSLNDIIEQLQELSETVPVPLELPTFEQLVEVEEQILIGLPNDLKEFLMYGSDVIYGTLEPVTAADPSSHTYLPEVACYAWSIGLPREQIAICQIGDSFYCIDEESQVMFWKKGRFSDKVWESFWHWAEDVWLNREGHHHHHH | soluble
7 | MSLNDKAILVGVDGSHASYKATWWAANYAKHAGLTLQIVCAYSLPSYAAVSFDATYTAMGDDNAAHNDAQEILSKAKAIADEQGVEASTLIVTGDPASVFVELSRNYNLIVIGNRGKGGLAERLLGTTSSSLPAYAYCPIVVVPYTDDEGNLMHLNNTITKVAVGSDESKWGLKALEIAAAFADSWGAELDVISAVPNMKGSEDEGVMASFQEDLDVRIKPLEAAYPSLKINKQIVPGPAAGALTKASYDHDVVVVGSRGRGGFTGLLLGSTSQGLLQHAVGPVYVVPRKYVEAAETRLDTVPSSPADVTPKAIDDIKGVEEVPVDKAKPEVVEAIETKIDPDREGHHHHHH | soluble
8 | MSLNERVMMINANGVPIALYNRGHLGSGHFGAVIKASLDDGTLYAAKVPYSQIVPNADATSAELEAEISSARAELVKTIRQELDVRDKLVAKGLTLTETAEQYGLPLCQMTLTLPENKATVVRRGSRLVVVSKEVMLLPLIDGSPSNSLVQSQPPFLFQRAVAREAIIALAKLHELGFAHGDVKLNNMMIDVHGFGHMLDMGSVRPVDSCVSEEDKYYLRLWAPELAKSQHTSQQTCLKRGALDVWALGLAIFEFVCFNRLPYSLSNLPSSLWSRVEHLSRLRLSDFSAKDCNESDPAVMGIVAQFLNPNPEERPELPKFVSSYTFFRQAPGVTSHLTRIPTTELSSHREGHHHHHH | soluble
9 | MSLNFIDEFRDKESILALKKLIEQELKNPINIMEICGGHTHSIMKYALPSILPKEINFIHGPGCPVCVMPRVRIDTAIKLASMKDTIFCTLGDLLRVPGSEISLLDLRAKGADVRALYSPLEVLEIAKQNLNKNIIFFAIGFETTTPMSALLLQKVIEEKINNVFFHINHITVPAPVEAIMNDENVKINAFLGPSHVSVITGYGIYEPLAAKFKTPIAVSGFEPVDILESVLNIIKQSNEGTFKVYNQYKRAVSKEGNVKAQNLVKKYFRVCDFEFRGLGLIKNGGLELKEEFSAYDASKKFDCTVQSKNESKACICGQILRGLAKPYDCKVFGKACTPRSPIGSCMVSGEGACAAYYKYSKVNAEGHHHHHH | soluble
10 | MSLNFLDFEQPIAELEAKIDSLTAVSRQDEKLDINIDEEVHRLREKSVELTRKIFADLGAWQIAQLARHPQRPYTLDYVRLAFDEFDELAGDRAYADDKAIVGGIARLDGRPVMIIGHQKGRETKEKIRRNFGMPAPEGYRKALRLMQMAERFKMPIITFIDTPGAYPGVGAEERGQSEAIARNLREMSRLGVPVVCTVIGEGGSGGALAIGVGDKVNMLQYSTYSVISPEGCASILWKSADKAPLAAEAMGIIAPRLKELKLIDSIIPEPLGGAHRNPEAMAASLKAQLLADLADLDVLSTEDLKNRRYQRLMSYGYALEHHHHHH | not soluble
11 | MSLNFPHLSKQSLGLYPVVDDVSWIERLLPLGINTIQLRIKDPYQPDLEQQIARAIELGRQYDAQVFINDYWQLAIKHGAFGVHLGQEDIEDSNLSQLSTAGICLGLSTHGYYELLRIVQINPSYIALGHIFSTTTKQMPSKPQGLVRLALYQKLNDSIPYGESVGYPTVAIGGIDQSNAEQVWQCGVSSLAVVRAITLSESPKQVIEFFDQLMNTTSTSLVMEDYRAYEGHHHHHH | not soluble
12 | MSLNINYPAEYEIGDKVFTCIGAALFGQISAASNCWSNHVGIIIGHNGEDFLVAESRVPLSTITTLSRFIKRSSNQRYAIKRLDAGLTEQQKQRIVEQVPSRLRKLYHTGFKYESSRQFCSKFVFDIYKEALCIPVGEIETFGELLNSNPNAKLTFWKFWFLGSIPWERKTVTPASLWHHPGLVLIHAEGVETPQPELTEAVEGHHHHHH | not soluble
13 | MSLNKIKILPLAIALALSGCGSDETTPIDTGSHVASPDWQDQIIYFLMIDRFNDGDSALNDQGQNEFDPTSDKKFSGGDLVGVSDKLSYIEDLGATSIWITPPVANQWWDAEQNYGGYHGYWARDFQKVDEHFGDMESYQALAREVHARNMFLIQDIVTNHVGNFFTYDDPYSYDPSLPCQGFRLIKNALPAGQELPYPLNMNECKTDGTGSYHWTPTITDHNDPVQEKTWQLSDLDDLNTSDPEVRAYLKESYRKWIREVGVDGFRIDTVKFVEHDFWSDFLHADDGVMTQAVDTGRDNFLTFGEVFETSTPYHTEGEEKMLTYIGESGSPKQLTSVLNFPLQATMTRVFASGQPTDYLRFRLEKMMEMFPNPYIMPNFIDNHDMPRFLSQGSVNDMKQALITMMSVPGIPVIYQGTEQAMSAARDAMFAGGYREDGNYVDSFDQNSEMYLFIQELAKLRTENKVMTRGEIKVIGSDKAGAGVFAFTRTLDNDEVLVVMNTSNSPMLMNQLDVEQAGGTVFKQQIMSNWADAPEQLVADENGHVTLELPAKSAVIYSKTSSNQSVNTPDLNIQLAQDWEGKTITGDIVIAGSANANEKLNLVVDGNLETAQTITVGADGQFSVTLSTRHFAIGEQQHRFAIYSTEKKAGIEDVNFVSNLSWSNTPDDTIDDAGDAQDGVGGPNGNYSLPTDPTFDKDNSQLAINKAEVFTVGSNVRLTFTMDKITDTWLPPNGFDHVGFTIFIDLPEEAATNLSELPKINASMPNGTWSRNAVVFGWQSSIYNTKGANATTWGEAVTPAPTVTVDKANNTISMDFASDALGRPESLDGIRFYVTTWDLDGLSATYRPLEQDKGPWNFSGGASDESKIWDDLPIITLSEGHHHHHH | soluble
14 | MSLNKNEKVKIAYVGIGNRGQQIIEDFARTGMVEVVALCDVDMGAKHTQKVIGMYPKAKQFRDFRQMFDKAGKEFDAVAIATPDHSHFPISMLALASGKHVYVEKPLARTFYEAELLMQAALKRPNLATQVGNQGHSEANYFQFKAWMDAGIIKDVTAVTAHMNNEGHHHHHH | not soluble
15 | MSLNKVSLAQIAKAAGVSKMTASRVLRDEGGFSESTRARVMAEIDRLGYVPNRLATVFAGDQRSTFVGVSIPELGNEIFAQVLEGIDRKLGAFGHQTVLGMTEHALEQEEKWLETVLSWQPAGLIVTGRSHTPKSIQLLSGAGIPLVEIWDFNSSPLDMSVGLNHFDSGYSMGRYLTGLGYRQFGYVGTSHDTANAASARLAGYAKVIGDSGGSLKKQLLLKDAPGFYTGYYGTEQLLAANSDVEVIYYQNDNMAVGGLNYCQKRGLSIPGDIGIAGWGDLPIASILPYRLTSTAVPHLRIGMIAAEMVLSQINGEARRRSQDVGFTLIPGSTVRSQLEEGHHHHHH | soluble
16 | MSLNLTIGTSKFNPPFEVWSGNNSSLYGFDIDLMQEICRRLHATCTFEAYIFDDLFPALKNREVDLVIASMIITDERKKHFIFSLPYMESNSQYITTVDSKISTFDDLHGKKIGVRKGTPYARQVLSENRNNQVIFYELIQDMLLGLSNNQVDASLMDYEAAKYWMASEPYAYKLIGKKYKLIGKKISIGEGYSIMANPDQFVLIKKINKILLEMEADGTYLRLYSEYFEGHHHHHH | soluble
17 | MSLNLWGDRVGYSKYKYEGLLNLCLEVFQRLGYTKEDSYTIGEVLLLADLFGIESHGVQRLTLYYKGIRNGSIKVKNHMNIVKESPVSVVIDGDGGMGQIISKKAMERAIDKAKKTGIGMAIVKNSNHFGIAGYYSRMAERKGLMGIAMTNTRAIVLPTYGREQMLGTNPISIAMPARPIPFLLDMATSVITRGKVEVYSKNNQKLNYGWAMDDEGRKTDNPDKVLKLANGNTGGLLPLGGDTEIFGGHKGYGISFAVEMFTSILSGGLTSDEIRGNNNTNGVCHAFAAIDYGLFDDKNAIEKRMSAYMQKIRNSKKAYGASRIYTHGEKELEAYEDRMENGIPINENTIVEIKEICDYVDIDINNYLKEGHHHHHH | soluble
18 | MSLNNRIIYVVSDSVGETAELVVKAALSQFNGSADDTHVRRIPYVEDIGTINEVISLAKADGGIICFTLVVPEIREYLIAEAEKANVLYYDIIGPLIDKMETAYGLTAKYEPGRVRQLDEDYFKKVEAIEFAVKYDDGRDPRGILKADIVLIGVSRTSKTPLSQYLAHKRLKVANVPIVPEVDPPEELFNVDPKKCIGLKISPDKLNHIRKERLKSLGLNDKAIYANINRIKEELEYFEKIVDRIGCQVVDVSNKAVEETANIIHHLKTKNIEGHHHHHH | soluble
